This note sets out measurements from the supplement of paper PMC10567573.

Sequences and labels used below:
B1: TRIM43 (parent)
chain: NNSWIRKNSTMVNSEDIFLLLCLK
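Further: lentivirally expressed fusions sorted by FACS into six bins by GFP to DsRed ratio, PSI derived from sequencing read proportions per bin multiplied by bin number.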

The data set covers variants of B1. Description: protein stability index of a GFP-peptide fusion (GPS, HEK-293T) (PSI 1-6); higher = more stable. The settings on record: c terminus: a fixed tail appended.
On to NNSWIRKNSTMVNSEDIFLLLCLV [K24V], for which the protein stability index is 2.38.

Regarding NNSWIRKNSTMVNSEDIFLLLCLA [K24A], the protein stability index turned out to be 3.16.

Turning to NNSWIRKNSTMVNSEDIFLLLCLY [K24Y], the protein stability index was 3.18.

NNSWIRKNSTMVNSEDAFLLLCLK [I17A]: the protein stability index worked out at 2.04.

Consider NNSWIRKNSTMVNSEDWFLLLCLK [I17W], for which the protein stability index was found to be 2.16.

With NNSWIRKNSTMVNSEDTFLLLCLK [I17T], the protein stability index stood at 2.42.

On to NNSWIRKNSTMVNSEDKFLLLCLK [I17K], for which the protein stability index amounted to 2.62.

Regarding NNSWIRKNSTMVNSEDHFLLLCLK [I17H], the protein stability index was found to be 2.5.

In the case of NNSWIRKNSTMVNSEDMFLLLCLK [I17M], the protein stability index worked out at 2.26.

NNSWIRKNSTMVNSEDQFLLLCLK [I17Q]: the protein stability index is 3.35.

With NNSWIRKNSTMVNSEDSFLLLCLK [I17S], the protein stability index turned out to be 2.6.

With NNSWIRKNSTMVNSEDRFLLLCLK [I17R], the protein stability index is 2.7.

With NNSWIRKNSTMVNSEDLFLLLCLK [I17L], the protein stability index amounted to 3.15.

Turning to NNSWIRKNSTMVNSEDGFLLLCLK [I17G], the protein stability index was found to be 2.04.

Turning to NNSWIRKNSTMVNSEDFFLLLCLK [I17F], the protein stability index came to 2.21.

Regarding NNSWIRKNSTMVNSEDYFLLLCLK [I17Y], the protein stability index worked out at 2.83.

Regarding NNSWIRKNSTMVNSEDNFLLLCLK [I17N], the protein stability index amounted to 1.85.

For NNSWIRKNSTMVNSEDPFLLLCLK [I17P], the protein stability index was 1.93.

Take NNSWIRKNSTMVNSEDCFLLLCLK [I17C]: the protein stability index was found to be 3.18.

In the case of NNSWIRKNSTMVNSEDEFLLLCLK [I17E], the protein stability index was 3.62.

Take NNSWIRKNSTMVNSEDVFLLLCLK [I17V]: the protein stability index came to 2.24.

Turning to NNSWIRKNSTMVNSEDDFLLLCLK [I17D], the protein stability index was determined as 1.93.

NNSWIRKNSTMVNSEDIFLTLCLK [L20T]: the protein stability index came to 2.72.

For NNSWIRKNSTMVNSEDIFLQLCLK [L20Q], the protein stability index was 3.05.

With NNSWIRKNSTMVNSEDIFLVLCLK [L20V], the protein stability index turned out to be 2.57.

Regarding NNSWIRKNSTMVNSEDIFLKLCLK [L20K], the protein stability index stood at 2.36.

With NNSWIRKNSTMVNSEDIFLGLCLK [L20G], the protein stability index is 1.48.

For NNSWIRKNSTMVNSEDIFLCLCLK [L20C], the protein stability index turned out to be 2.25.

As to NNSWIRKNSTMVNSEDIFLSLCLK [L20S], the protein stability index was 2.28.

As to NNSWIRKNSTMVNSEDIFLPLCLK [L20P], the protein stability index was 2.46.

As for NNSWIRKNSTMVNSEDIFLFLCLK [L20F], the protein stability index worked out at 2.92.

For the variant NNSWIRKNSTMVNSEDIFLDLCLK [L20D], the protein stability index came out at 2.27.

For the variant NNSWIRKNSTMVNSEDIFLHLCLK [L20H], the protein stability index was 2.5.

For NNSWIRKNSTMVNSEDIFLRLCLK [L20R], the protein stability index stood at 1.72.

NNSWIRKNSTMVNSEDIFLWLCLK [L20W]: the protein stability index came out at 3.12.

NNSWIRKNSTMVNSEDIFLMLCLK [L20M]: the protein stability index came to 3.31.

Consider NNSWIRKNSTMVNSEDIFLNLCLK [L20N], for which the protein stability index worked out at 3.

For the variant NNSWIRKNSTMVNSEDIFLYLCLK [L20Y], the protein stability index came to 2.75.

Turning to NNSWIRKNSTMVNSEDIFLILCLK [L20I], the protein stability index was 2.64.

In the case of NNSWIRKNSTMVNSEDIFLELCLK [L20E], the protein stability index is 1.75.

In the case of NNSWIRKNSTMVNSEDIFLALCLK [L20A], the protein stability index came out at 2.14.

On to NNSWIRKNSTMVNSEDIFLLLNLK [C22N], for which the protein stability index was 2.32.

In the case of NNSWIRKNSTMVNSEDIFLLLYLK [C22Y], the protein stability index was determined as 3.36.

Regarding NNSWIRKNSTMVNSEDIFLLLWLK [C22W], the protein stability index was found to be 2.66.

On to NNSWIRKNSTMVNSEDIFLLLALK [C22A], for which the protein stability index came out at 1.91.

As to NNSWIRKNSTMVNSEDIFLLLTLK [C22T], the protein stability index turned out to be 2.19.

For the variant NNSWIRKNSTMVNSEDIFLLLRLK [C22R], the protein stability index amounted to 1.91.

With NNSWIRKNSTMVNSEDIFLLLELK [C22E], the protein stability index turned out to be 2.33.

For NNSWIRKNSTMVNSEDIFLLLSLK [C22S], the protein stability index is 2.72.

With NNSWIRKNSTMVNSEDIFLLLMLK [C22M], the protein stability index is 2.61.

As to NNSWIRKNSTMVNSEDIFLLLDLK [C22D], the protein stability index came to 1.94.

Consider NNSWIRKNSTMVNSEDIFLLLQLK [C22Q], for which the protein stability index was 2.06.

Turning to NNSWIRKNSTMVNSEDIFLLLILK [C22I], the protein stability index was determined as 2.66.

On to NNSWIRKNSTMVNSEDIFLLLLLK [C22L], for which the protein stability index is 3.17.

With NNSWIRKNSTMVNSEDIFLLLKLK [C22K], the protein stability index was 2.13.

For the variant NNSWIRKNSTMVNSEDIFLLLPLK [C22P], the protein stability index worked out at 2.44.

For the variant NNSWIRKNSTMVNSEDIFLLLHLK [C22H], the protein stability index was found to be 2.62.

Turning to NNSWIRKNSTMVNSEDIFLLLGLK [C22G], the protein stability index turned out to be 2.32.

As to NNSWIRKNSTMVNSEDIFLLLVLK [C22V], the protein stability index came out at 2.96.

Consider NNSWIRKNSTMVNSEDIFLLCCLK [L21C], for which the protein stability index is 3.87.

Turning to NNSWIRKNSTMVNSEDIFLLKCLK [L21K], the protein stability index came to 2.58.

On to NNSWIRKNSTMVNSEDIFLLICLK [L21I], for which the protein stability index stood at 3.08.

Take NNSWIRKNSTMVNSEDIFLLFCLK [L21F]: the protein stability index was found to be 1.95.

As to NNSWIRKNSTMVNSEDIFLLYCLK [L21Y], the protein stability index is 2.9.

Take NNSWIRKNSTMVNSEDIFLLGCLK [L21G]: the protein stability index stood at 1.83.

As to NNSWIRKNSTMVNSEDIFLLDCLK [L21D], the protein stability index amounted to 1.92.

Regarding NNSWIRKNSTMVNSEDIFLLRCLK [L21R], the protein stability index is 1.94.

For the variant NNSWIRKNSTMVNSEDIFLLQCLK [L21Q], the protein stability index worked out at 2.44.

Take NNSWIRKNSTMVNSEDIFLLTCLK [L21T]: the protein stability index amounted to 2.96.

For the variant NNSWIRKNSTMVNSEDIFLLSCLK [L21S], the protein stability index is 2.65.

As for NNSWIRKNSTMVNSEDIFLLACLK [L21A], the protein stability index was 2.13.

Consider NNSWIRKNSTMVNSEDIFLLPCLK [L21P], for which the protein stability index came to 2.37.

As to NNSWIRKNSTMVNSEDIFLLHCLK [L21H], the protein stability index amounted to 2.39.

With NNSWIRKNSTMVNSEDIFLLVCLK [L21V], the protein stability index turned out to be 3.54.

On to NNSWIRKNSTMVNSEDIFLLWCLK [L21W], for which the protein stability index stood at 2.91.

For the variant NNSWIRKNSTMVNSEDIFLLNCLK [L21N], the protein stability index is 1.58.

On to NNSWIRKNSTMVNSEDIFLLMCLK [L21M], for which the protein stability index stood at 3.25.

For the variant NNSWIRKNSTMVNSEDIFLLECLK [L21E], the protein stability index came to 3.8.

As to NNSWIRKNSTMVNSEDIFLLLCTK [L23T], the protein stability index came out at 2.42.

Turning to NNSWIRKNSTMVNSEDIFLLLCPK [L23P], the protein stability index stood at 2.15.

In the case of NNSWIRKNSTMVNSEDIFLLLCYK [L23Y], the protein stability index stood at 2.25.

Consider NNSWIRKNSTMVNSEDIFLLLCNK [L23N], for which the protein stability index was found to be 1.66.

For the variant NNSWIRKNSTMVNSEDIFLLLCKK [L23K], the protein stability index stood at 1.54.

On to NNSWIRKNSTMVNSEDIFLLLCHK [L23H], for which the protein stability index was determined as 2.61.

In the case of NNSWIRKNSTMVNSEDIFLLLCGK [L23G], the protein stability index amounted to 1.44.

As for NNSWIRKNSTMVNSEDIFLLLCWK [L23W], the protein stability index amounted to 3.66.

Turning to NNSWIRKNSTMVNSEDIFLLLCAK [L23A], the protein stability index was determined as 2.83.

As for NNSWIRKNSTMVNSEDIFLLLCQK [L23Q], the protein stability index is 2.38.

Turning to NNSWIRKNSTMVNSEDIFLLLCDK [L23D], the protein stability index amounted to 1.95.

On to NNSWIRKNSTMVNSEDIFLLLCRK [L23R], for which the protein stability index was determined as 1.55.

For the variant NNSWIRKNSTMVNSEDIFLLLCSK [L23S], the protein stability index was 2.42.

With NNSWIRKNSTMVNSEDIFLLLCFK [L23F], the protein stability index is 3.62.

For NNSWIRKNSTMVNSEDIFLLLCEK [L23E], the protein stability index came out at 1.93.

As for NNSWIRKNSTMVNSEDIFLLLCCK [L23C], the protein stability index was 1.84.
